{"source": "patent US20260151499A1", "about": "“ANTIBODY DERIVATIVE AND USE THEREOF” (TSINGHUA UNIVERSITY, priority 2023, published 2026)", "molecules": {"B1": {"name": "G3-PEG3-ASF: IgG1 Ab-UAA G3 conjugated with ASF-PEG3-DBCO (conjugate)", "VH": "EVQLVESGGGLVQPGGSLRLSCAASGFTFSASYMSWVRQAPGKGLEWIGSIYYSGSTYYNPSLKSRVTISADTSKNTAYLQMNSLRAEDTAVYYCARGAPYYEGAFDIWGQGTLVTVSS", "VL": "DIQMTQSPSSLSASVGDRVTITCRASQYISTYLNWYQQKPGKAPKVLISKTSYLESGVPSRFSGSRSGTDFTLTISSLQPEDFATYYCQQXYTTPPTFGQGTKLEI", "modifications": "non-natural residues", "notes": "IgG1 Ab-UAA G3 conjugated with ASF-PEG3-DBCO"}, "B2": {"name": "ABN3-2G: CD73 antibody clone, VH SEQ ID NO: 77, VL SEQ ID NO: 87 (antibody, V domains shown)", "VH": "EVQLVESGGGLVQPGGSLRLSCAASGITFGSYTMSWVRQAPGKGLEWIGTVHYTGKTFYSPSLKSRVTISADTSKNTAYLQMNSLRAEDTAVYYCARGRDFGEPPYVRAFDIWGQGTLVTVSS", "VL": "B1 VL with R24Q, Q27H, Y28D, T31K, V46L, S49Y, K50D, T51A, Y53N, S56T", "modifications": "not fully specified; VARIANT 91 natural amino acid or unnatural amino acid"}, "B3": {"name": "ABN3-2G-BN3: IgG1 antibody ABN3-2G conjugated to BN3 (conjugate)", "VH": "B2 VH", "VL": "B1 VL with R24Q, Q27H, Y28D, T31K, V46L, S49Y, K50D, T51A, Y53N, S56T", "modifications": "not fully specified; non-natural residues"}, "B4": {"name": "10A7-BN3: IgG1 antibody 10A7 conjugated to BN3 (conjugate)", "VH": "EVQLVESGGGLVQPGGSLRLSCAASGFAFSSYSMSWVRQAPGKGLEWIGSIYYSGSTYYNPSLKSRVTISADTSKNTAYLQMNSLRAEDTAVYYCARNSGFETLDYWGQGTLVTVSS", "VL": "DIQMTQSPSSLSASVGDRVTITCRASQGISRWLAWYQQKPGKAPNLLIYGASTLQSGVPPRFSGSRSGTDFTLTISSLQPEDFATYYCQQXYTTPPTFGQGTKLEI", "modifications": "non-natural residues"}, "B5": {"name": "5A5-PEG3-ASF: antibody 5A5 conjugated with ASF-PEG3-DBCO (conjugate)", "VH": "EVQLVESGGGLVQPGGSLRLSCAASGFPFSGHWMHWVRQAPGKGLEWVSGISWNGGTTGYADSVKGRFTISRDNAKNSVYLQMNSLRAEDTAVYYCARDDYGGDSFDSWGQGTLVTVSS", "VL": "B4 VL with G28S, R31D, N45K, G50A, T53S, P60S", "modifications": "non-natural residues", "notes": "antibody 5A5 conjugated with ASF-PEG3-DBCO"}, "B6": {"name": "6D11: CD73 antibody clone, VH SEQ ID NO: 81, VL SEQ ID NO: 91 (antibody, V domains shown)", "VH": "EVQLVESGGGLVQPGGSLRLSCAASGFTFSGHWMHWVRQAPGKGLEWIGSIYYSGSTYYNPSLKSRVTISADTSKNTAYLQMNSLRAEDTAVYYCARDRGWLQFDYWGQGTLVTVSS", "VL": "B1 VL with Y28N, S30G, N34A, V46L, S49Y, K50D, T51A, Y53N, S56T", "modifications": "VARIANT 91 natural amino acid or unnatural amino acid"}, "B7": {"name": "10A7: CD73 antibody clone, VH SEQ ID NO: 73, VL SEQ ID NO: 83 (antibody, V domains shown)", "VH": "B4 VH", "VL": "B4 VL", "modifications": "VARIANT 91 natural amino acid or unnatural amino acid"}, "B8": {"name": "ABN3-2B-BN3: IgG1 antibody ABN3-2B conjugated to BN3 (conjugate)", "VH": "EVQLVESGGGLVQPGGSLRLSCAASGFTFSSYWMHWVRQAPGKGLEWVSAVSGSGDSTYYADSVKGRFTISADTSKNTAYLQMNSLRAEDTAVYYCAREGDWGLDYWGQGTLVTVSS", "VL": "B4 VL with S30N, R31N, W32Y, N45K, G50D, T53N, Q55E, S56T, P60S", "modifications": "not fully specified; non-natural residues"}, "B9": {"name": "10A7-Fab-BN3: papain-derived Fab of 10A7 conjugated with BN3, monovalent (conjugate)", "VH": "B4 VH", "VL": "B4 VL", "modifications": "non-natural residues"}, "B10": {"name": "14E6-PEG3-ASF: antibody 14E6 conjugated with ASF-PEG3-DBCO (conjugate)", "VH": "EVQLVESGGGLVQPGGSLRLSCAASGFTFSNFAMHWVRQAPGKGLEYVSAISGGNGGGTYYADSAKGRFTISADTSKNTAYLQMNSLRAEDTAVYYCAREGNYCLDYWGQGTLVTVSS", "VL": "B4 VL with G28P, R31D, N45K, L46S, G50D, S52Y, T53N", "modifications": "not fully specified; non-natural residues", "notes": "antibody 14E6 conjugated with ASF-PEG3-DBCO"}, "B11": {"name": "14H4-PEG3-ASF: antibody 14H4 conjugated with ASF-PEG3-DBCO (conjugate)", "VH": "EVQLVESGGGLVQPGGSLRLSCAASGFSFSKFWMHWVRQAPGKGLEWVAFMAHDESNKNYADSVKGRFTISADTSKNTAYLQMNSLRAEDTAVYYCARDKVCNTFDIWGQGTLVTVSS", "VL": "B1 VL with Y28S, T31S, Y32D, V46L, S49Y, K50R, T51A, S52T, Y53F", "modifications": "not fully specified; non-natural residues", "notes": "antibody 14H4 conjugated with ASF-PEG3-DBCO"}, "B12": {"name": "F3-PEG3-ASF: IgG1 Ab-UAA F3 conjugated with ASF-PEG3-DBCO (conjugate)", "VH": "EVQLVESGGGLVQPGGSLRLSCAASGFTFSGHWMHWVRQAPGKGLEWVASISDSSSYIYYADSVRGRFTISRDNAKKTLYLQMNSLRAEDTAVYYCARDYEGATRAADYWGQGTLVTVSS", "VL": "DIQMTQSPSSLSASVGDRVTITCRASQVIGNDLGWYQQKPGKAPKLLIYDVSNVQTGVPSRFSGSRSGTDFTLTISSLQPEDFATYYCQQXYTTPPTFGQGTKLEI", "modifications": "non-natural residues", "notes": "IgG1 Ab-UAA F3 conjugated with ASF-PEG3-DBCO"}}, "key": {"NaV1.2": {"molecular_target": "T1, NaV1.2 (Homo sapiens, UniProt Q99250)", "T1 construct": "expressed in transfected cells; host or cells: HEK293", "T1 sequence (Q99250 whole entry)": "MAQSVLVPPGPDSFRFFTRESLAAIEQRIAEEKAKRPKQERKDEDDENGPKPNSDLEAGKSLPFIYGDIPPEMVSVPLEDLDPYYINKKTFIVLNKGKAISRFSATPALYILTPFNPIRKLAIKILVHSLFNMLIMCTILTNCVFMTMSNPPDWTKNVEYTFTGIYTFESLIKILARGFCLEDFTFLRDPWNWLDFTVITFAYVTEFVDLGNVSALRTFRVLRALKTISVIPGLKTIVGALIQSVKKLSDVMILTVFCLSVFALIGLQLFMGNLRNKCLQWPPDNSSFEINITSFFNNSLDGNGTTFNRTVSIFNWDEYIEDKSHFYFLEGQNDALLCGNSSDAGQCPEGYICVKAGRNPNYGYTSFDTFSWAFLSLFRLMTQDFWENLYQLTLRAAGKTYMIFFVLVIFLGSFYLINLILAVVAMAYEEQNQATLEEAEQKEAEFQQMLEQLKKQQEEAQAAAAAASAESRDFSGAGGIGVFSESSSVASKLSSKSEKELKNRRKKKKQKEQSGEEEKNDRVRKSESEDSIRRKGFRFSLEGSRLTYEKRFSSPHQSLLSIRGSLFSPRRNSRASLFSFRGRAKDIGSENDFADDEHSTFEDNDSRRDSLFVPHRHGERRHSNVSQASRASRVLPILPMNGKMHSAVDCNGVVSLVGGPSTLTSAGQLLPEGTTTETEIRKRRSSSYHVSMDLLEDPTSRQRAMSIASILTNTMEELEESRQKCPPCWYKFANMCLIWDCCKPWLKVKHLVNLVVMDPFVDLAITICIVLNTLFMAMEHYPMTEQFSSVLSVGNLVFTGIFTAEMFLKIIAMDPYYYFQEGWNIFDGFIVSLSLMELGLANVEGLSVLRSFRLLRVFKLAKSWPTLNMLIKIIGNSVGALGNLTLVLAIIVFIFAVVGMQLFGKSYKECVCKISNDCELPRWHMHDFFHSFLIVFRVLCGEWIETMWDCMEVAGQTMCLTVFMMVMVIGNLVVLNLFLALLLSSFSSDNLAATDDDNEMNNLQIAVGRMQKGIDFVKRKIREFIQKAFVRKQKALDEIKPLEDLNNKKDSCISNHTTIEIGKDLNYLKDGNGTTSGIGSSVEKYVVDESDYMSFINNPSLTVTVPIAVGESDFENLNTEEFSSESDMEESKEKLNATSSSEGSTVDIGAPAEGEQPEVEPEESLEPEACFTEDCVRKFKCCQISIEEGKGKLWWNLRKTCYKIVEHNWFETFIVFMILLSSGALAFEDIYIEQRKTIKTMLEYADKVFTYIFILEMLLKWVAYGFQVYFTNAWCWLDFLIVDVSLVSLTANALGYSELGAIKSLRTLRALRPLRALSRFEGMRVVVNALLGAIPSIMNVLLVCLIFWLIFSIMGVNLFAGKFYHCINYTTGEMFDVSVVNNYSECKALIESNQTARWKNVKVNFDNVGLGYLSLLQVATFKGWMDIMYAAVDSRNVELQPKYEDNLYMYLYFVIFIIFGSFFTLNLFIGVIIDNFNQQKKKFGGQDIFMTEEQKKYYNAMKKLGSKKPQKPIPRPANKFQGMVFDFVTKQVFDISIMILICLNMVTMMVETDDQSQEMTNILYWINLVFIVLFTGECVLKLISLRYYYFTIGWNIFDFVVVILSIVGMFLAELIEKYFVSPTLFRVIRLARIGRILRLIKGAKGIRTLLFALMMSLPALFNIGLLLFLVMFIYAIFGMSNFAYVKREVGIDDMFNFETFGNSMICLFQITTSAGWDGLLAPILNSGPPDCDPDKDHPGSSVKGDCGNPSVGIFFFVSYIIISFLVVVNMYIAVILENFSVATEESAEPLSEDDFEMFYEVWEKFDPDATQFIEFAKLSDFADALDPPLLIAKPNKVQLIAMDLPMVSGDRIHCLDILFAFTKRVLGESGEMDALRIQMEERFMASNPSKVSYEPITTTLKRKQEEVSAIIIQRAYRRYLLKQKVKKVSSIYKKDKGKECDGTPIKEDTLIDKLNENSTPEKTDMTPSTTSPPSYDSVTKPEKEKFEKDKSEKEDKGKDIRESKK", "test": "Whole-cell patch clamp, HEK293-NaV1.2 cells", "type": "cell-based", "settings": "for inhibitory activity against NaV1.2 (in words): tested up to 500 nM; for inhibitory activity against NaV1.2 at 100 nM (in words): 100 nM Ab-ASF"}, "NaV1.7": {"molecular_target": "T2, NaV1.7 (Homo sapiens, UniProt Q15858)", "T2 construct": "expressed in transfected cells; host or cells: HEK293", "T2 sequence (Q15858 whole entry)": "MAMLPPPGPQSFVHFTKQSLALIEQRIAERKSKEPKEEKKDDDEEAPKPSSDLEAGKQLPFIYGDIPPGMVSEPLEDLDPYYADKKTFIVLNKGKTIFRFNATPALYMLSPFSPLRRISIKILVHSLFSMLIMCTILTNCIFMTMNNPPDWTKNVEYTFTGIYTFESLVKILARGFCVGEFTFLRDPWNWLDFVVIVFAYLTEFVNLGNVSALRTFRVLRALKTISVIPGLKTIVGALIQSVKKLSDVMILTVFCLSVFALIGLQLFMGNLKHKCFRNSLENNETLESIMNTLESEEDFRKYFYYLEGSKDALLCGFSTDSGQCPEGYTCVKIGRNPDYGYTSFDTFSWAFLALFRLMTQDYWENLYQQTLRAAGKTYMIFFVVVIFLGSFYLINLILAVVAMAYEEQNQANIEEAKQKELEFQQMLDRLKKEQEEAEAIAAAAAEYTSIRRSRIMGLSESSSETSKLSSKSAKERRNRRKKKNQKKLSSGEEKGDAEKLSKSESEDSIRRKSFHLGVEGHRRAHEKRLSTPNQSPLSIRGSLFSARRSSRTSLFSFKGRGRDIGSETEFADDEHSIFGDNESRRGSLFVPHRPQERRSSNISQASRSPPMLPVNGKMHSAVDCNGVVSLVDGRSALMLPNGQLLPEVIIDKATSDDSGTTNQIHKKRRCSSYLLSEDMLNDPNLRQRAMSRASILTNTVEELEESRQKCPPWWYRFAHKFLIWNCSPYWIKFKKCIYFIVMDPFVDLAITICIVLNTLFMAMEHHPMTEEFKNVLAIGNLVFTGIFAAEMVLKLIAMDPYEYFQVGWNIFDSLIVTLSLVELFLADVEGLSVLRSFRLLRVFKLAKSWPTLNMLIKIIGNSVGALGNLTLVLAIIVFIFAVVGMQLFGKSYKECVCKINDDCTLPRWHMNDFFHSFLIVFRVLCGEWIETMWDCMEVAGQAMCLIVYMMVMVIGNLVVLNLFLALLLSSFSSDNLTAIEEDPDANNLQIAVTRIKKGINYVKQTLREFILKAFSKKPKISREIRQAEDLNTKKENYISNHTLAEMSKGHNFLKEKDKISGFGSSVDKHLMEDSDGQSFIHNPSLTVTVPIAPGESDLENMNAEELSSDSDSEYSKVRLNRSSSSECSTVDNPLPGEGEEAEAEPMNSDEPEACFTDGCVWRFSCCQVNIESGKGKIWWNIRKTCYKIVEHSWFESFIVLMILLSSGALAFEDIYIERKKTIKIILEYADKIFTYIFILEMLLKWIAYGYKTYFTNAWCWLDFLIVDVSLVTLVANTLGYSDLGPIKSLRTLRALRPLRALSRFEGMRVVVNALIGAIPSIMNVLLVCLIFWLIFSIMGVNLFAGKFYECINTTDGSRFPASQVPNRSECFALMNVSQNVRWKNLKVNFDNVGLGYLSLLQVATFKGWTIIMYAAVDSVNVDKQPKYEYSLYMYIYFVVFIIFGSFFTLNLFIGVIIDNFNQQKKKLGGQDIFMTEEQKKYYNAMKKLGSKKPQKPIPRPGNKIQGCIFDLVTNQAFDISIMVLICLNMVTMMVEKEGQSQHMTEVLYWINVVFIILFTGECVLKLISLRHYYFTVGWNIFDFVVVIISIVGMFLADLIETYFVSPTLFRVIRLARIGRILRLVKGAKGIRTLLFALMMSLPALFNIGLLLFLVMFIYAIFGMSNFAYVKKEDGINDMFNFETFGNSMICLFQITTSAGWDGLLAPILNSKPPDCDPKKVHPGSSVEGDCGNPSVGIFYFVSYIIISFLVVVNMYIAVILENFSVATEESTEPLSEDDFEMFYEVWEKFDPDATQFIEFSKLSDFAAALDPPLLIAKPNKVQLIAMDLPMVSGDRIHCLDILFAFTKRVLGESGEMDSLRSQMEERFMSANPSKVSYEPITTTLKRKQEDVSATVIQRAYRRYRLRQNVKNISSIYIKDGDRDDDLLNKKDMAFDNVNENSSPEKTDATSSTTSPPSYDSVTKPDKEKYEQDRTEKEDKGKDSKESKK", "test": "Whole-cell patch clamp, HEK293-NaV1.7 cells", "type": "cell-based", "settings": "for IC50: non-competitive screening clones, 15 min incubation, read-out: IC50 ± SEM (nM) of Ab-PEG3-ASF in inhibiting NaV1.7; for inhibitory activity against NaV1.7 (in words): tested up to 500 nM where selectivity"}, "CD73 [1]": {"molecular_target": "T3, CD73 (Homo sapiens, UniProt P21589)", "T3 construct": "His (Chis) (C); made in house; host or cells: 293 cells", "T3 sequence (P21589 27-549 limits assumed)": "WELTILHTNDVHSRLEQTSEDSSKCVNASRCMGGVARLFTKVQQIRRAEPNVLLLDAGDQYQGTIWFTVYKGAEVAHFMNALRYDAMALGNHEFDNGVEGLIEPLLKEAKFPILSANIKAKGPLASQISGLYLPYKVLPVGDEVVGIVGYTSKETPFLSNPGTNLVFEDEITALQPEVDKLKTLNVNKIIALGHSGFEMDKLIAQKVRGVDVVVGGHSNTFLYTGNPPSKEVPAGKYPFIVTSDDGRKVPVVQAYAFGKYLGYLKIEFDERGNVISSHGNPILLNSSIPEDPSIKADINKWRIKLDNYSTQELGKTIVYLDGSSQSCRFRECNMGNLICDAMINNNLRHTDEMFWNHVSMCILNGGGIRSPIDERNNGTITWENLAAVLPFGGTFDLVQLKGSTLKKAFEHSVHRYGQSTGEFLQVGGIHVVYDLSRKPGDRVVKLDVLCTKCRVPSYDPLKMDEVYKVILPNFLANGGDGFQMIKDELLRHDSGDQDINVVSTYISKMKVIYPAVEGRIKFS", "test": "CD73 inhibition, AMP hydrolysis, malachite green phosphate assay", "type": "biochemical", "settings": "for IC50: full-length IgG1 conjugated to BN3, read-out: IC50 ± SD (nM) of Ab-BN3 for inhibition of CD73"}, "CD73 [2]": {"molecular_target": "T3, CD73", "test": "Octet BLI affinity for CD73, Ab-BN3 on protein A sensors", "type": "binding"}, "NaV1.6": {"molecular_target": "T4, NaV1.6 (Homo sapiens, UniProt Q9UQD0)", "T4 construct": "expressed in transfected cells; host or cells: HEK293", "test": "Whole-cell patch clamp, HEK293-NaV1.6 cells", "type": "cell-based"}}, "note": "Positions count from the first letter of the chain named.", "data": [{"molecule": "B1", "values": [{"measurement": "inhibition of NaV1.2 at 500 nM", "setting": "NaV1.2; highest tested concentration of 500 nM", "result": "approximately 60%"}, {"measurement": "inhibitory activity against NaV1.2 (in words)", "setting": "NaV1.2", "result": "only weak inhibitory activity"}, {"measurement": "IC50", "setting": "NaV1.7", "result": "1.88 ± 0.394", "unit": "nM"}]}, {"molecule": "B2", "values": [{"measurement": "IC50", "setting": "CD73 [1]", "result": 0.565, "unit": "nM"}]}, {"molecule": "B3", "values": [{"measurement": "Kdis", "setting": "CD73 [2]", "result": 0.000271, "unit": "s⁻¹"}, {"measurement": "Kon", "setting": "CD73 [2]", "result": "3.05 × 10^5 1/ms"}]}, {"molecule": "B4", "values": [{"measurement": "Kdis", "setting": "CD73 [2]", "result": 0.000191, "unit": "s⁻¹"}, {"measurement": "Kon", "setting": "CD73 [2]", "result": "2.15 × 10^5 1/ms"}, {"measurement": "IC90", "setting": "CD73 [1]; calculated from the inhibition curves", "result": 2.9, "unit": "nM"}]}, {"molecule": "B5", "values": [{"measurement": "inhibitory activity against NaV1.2 (in words)", "setting": "NaV1.2", "result": "no inhibitory activity"}, {"measurement": "inhibitory activity against NaV1.7 (in words)", "setting": "NaV1.7", "result": "no inhibitory activity"}, {"measurement": "improvement of NaV1.6 inhibitory activity over ASF-PEG3-DBCO", "setting": "NaV1.6", "result": "more than 20 fold"}]}, {"molecule": "B6", "values": [{"measurement": "inhibitory activity against CD73 (in words)", "setting": "CD73 [1]", "result": "weak inhibitory trend"}, {"measurement": "IC50", "setting": "CD73 [1]", "result": 0.464, "unit": "nM"}]}, {"molecule": "B7", "values": [{"measurement": "IC50", "setting": "CD73 [1]", "result": 0.607, "unit": "nM"}]}, {"molecule": "B8", "values": [{"measurement": "Kdis", "setting": "CD73 [2]", "result": 0.000582, "unit": "s⁻¹"}, {"measurement": "Kon", "setting": "CD73 [2]", "result": "1.85 × 10^5 1/ms"}]}, {"molecule": "B9", "values": [{"measurement": "inhibitory activity against CD73 (in words)", "setting": "CD73 [1]", "result": "retained strong inhibitory activity"}]}, {"molecule": "B10", "values": [{"measurement": "inhibitory activity against NaV1.2 at 100 nM (in words)", "setting": "NaV1.2", "result": "near-complete inhibition"}, {"measurement": "inhibitory activity against NaV1.7 (in words)", "setting": "NaV1.7", "result": "no inhibitory activity"}]}, {"molecule": "B11", "values": [{"measurement": "inhibitory activity against NaV1.2 at 100 nM (in words)", "setting": "NaV1.2", "result": "near-complete inhibition"}, {"measurement": "inhibition rate of NaV1.7 at 100 nM", "setting": "NaV1.7; 100 nM", "result": "about 30%"}, {"measurement": "inhibition rate of NaV1.7 at 500 nM", "setting": "NaV1.7; 500 nM", "result": "about 40%"}]}, {"molecule": "B12", "values": [{"measurement": "inhibitory activity against NaV1.2 (in words)", "setting": "NaV1.2", "result": "no inhibitory activity"}, {"measurement": "IC50", "setting": "NaV1.7", "result": "2.69 ± 0.687", "unit": "nM"}]}]}
